Test results reported in ChEMBL document CHEMBL1122728, “Derivatives of 2-methyl-1,4-naphthoquinone as substrates and inhibitors of the vitamin K dependent carboxylase” (J Med Chem, 1984).
Values joined by “and” are separate entries in the source; they are usually repeats but may differ in a detail not shown here. Equal entries are not always repeated.

Experiments:
[1] = compound: COC(=O)[C@H](CC(C)C)NC(=O)[C@H](CCC(=O)O)NC(=O)[C@H](CCC(=O)O)NC(=O)CCCC1=CC(=O)c2ccccc2C1=O; assay: (§1) In vitro inhibitory effect Vitamin K dependent carboxylase of Phe-Leu-Glu-Glu-Leu in rat microsomal protein; format: microsomes; conditions: Microsome
[2] = compound: COC(=O)[C@H](CC(C)C)NC(=O)[C@H](CCC(=O)O)NC(=O)[C@H](CCC(=O)O)NC(=O)CCCC1=C(C)C(=O)c2ccccc2C1=O; assay: as §1; format: microsomes; conditions: Microsome

B1: Vitamin K-dependent gamma-carboxylase (Rattus norvegicus), O88496 (protein)
chain: MAVHRGSARAAPASDKVQKNKPAQTSGLEQGSRMARIFGFEWADLSSWQSVVTLLNRPTDPANLAVFRFLFAFLMLLDIPQERGLSSLDRKYLDGLDVCRFPLLDALRPLPLDWMYLVYTIMFLGALGMMLGLWYRLSCMLFLLPYWYVFLLDKTSWNNHSYLYGLLAFQLTFMDANHYWSVDGLLSAQKKNAHVPLWNYTVLRGQIFIVYFIAGVKKLDADWVEGYSMEHLSRHWLFSPFKLVLSEELTSLLVVHWCGLLLDLSAGFLLFFDASRPIGLVFVSYFHCMNSQLFSIGMFPYVMLASSPLFCSAEWPRKLVARCPKRLQELLPAKAAPRPSASCVYKRARAKAGQKPGLRHHLGTVFTLLYLLEQLFLPYSHFLTQGYNNWTNGLYGYSWDMMVHSRSHQHVKITYRDGLTGELGYLNPGVFTQSRRWKDHADMLKQYATCLSLLLPKYNVTEPQIYFDIWVSINDRFQQRLFDPRVDIVQAVWSPFRRTPWVQPLLMDLSPWRTKLQDIKSSLDNHTEVVFIADFPGLHLENFVSEDLGNTSIQLLQGEVTVELVAEQKNQTLREGEKMQLPAGEYHKVYTVSSSPSCYMYIYVNTTEVALEQDLAYLQELKEKVENGSETGPLPPELQPLLEGEVKGGPEPTPLVQTFLRRQRKLQEIERRRNSPLHERFLRFVLRKLYVFRRSFLMTRISLRNLLFGRPSLEQLAQEVTYANLRPFEPVDESSASNTDSSDPHPSEPDSEHVHSEL
**Q.** How did the Km [1] turn out when B1 was run?
**A.** The Km was 85 µM.

**Q.** And the Km [2]?
**A.** The Km was 44 µM and < 50 µM.
